In publication PMC11612273 (2024):
Residue numbers refer to the chain shown, from its start. In names and notes the source's numbering stands.

T1: GST-BRAKJK (tomato (Solanum lycopersicum), labeled with RED-NHS)
T1 chain: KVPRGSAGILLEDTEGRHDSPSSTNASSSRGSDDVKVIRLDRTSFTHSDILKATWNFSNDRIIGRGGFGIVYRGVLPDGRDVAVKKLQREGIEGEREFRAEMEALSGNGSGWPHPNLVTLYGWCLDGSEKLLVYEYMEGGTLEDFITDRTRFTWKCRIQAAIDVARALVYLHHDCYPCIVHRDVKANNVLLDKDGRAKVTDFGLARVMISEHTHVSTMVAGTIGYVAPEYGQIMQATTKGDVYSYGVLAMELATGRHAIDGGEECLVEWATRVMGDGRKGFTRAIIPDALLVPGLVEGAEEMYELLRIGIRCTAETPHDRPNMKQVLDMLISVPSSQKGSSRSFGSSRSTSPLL

T2: GST-PSKR1JK (tomato (Solanum lycopersicum), UniProt A0A3Q7E8N4 1-1013, labeled with RED-NHS)
T2 chain: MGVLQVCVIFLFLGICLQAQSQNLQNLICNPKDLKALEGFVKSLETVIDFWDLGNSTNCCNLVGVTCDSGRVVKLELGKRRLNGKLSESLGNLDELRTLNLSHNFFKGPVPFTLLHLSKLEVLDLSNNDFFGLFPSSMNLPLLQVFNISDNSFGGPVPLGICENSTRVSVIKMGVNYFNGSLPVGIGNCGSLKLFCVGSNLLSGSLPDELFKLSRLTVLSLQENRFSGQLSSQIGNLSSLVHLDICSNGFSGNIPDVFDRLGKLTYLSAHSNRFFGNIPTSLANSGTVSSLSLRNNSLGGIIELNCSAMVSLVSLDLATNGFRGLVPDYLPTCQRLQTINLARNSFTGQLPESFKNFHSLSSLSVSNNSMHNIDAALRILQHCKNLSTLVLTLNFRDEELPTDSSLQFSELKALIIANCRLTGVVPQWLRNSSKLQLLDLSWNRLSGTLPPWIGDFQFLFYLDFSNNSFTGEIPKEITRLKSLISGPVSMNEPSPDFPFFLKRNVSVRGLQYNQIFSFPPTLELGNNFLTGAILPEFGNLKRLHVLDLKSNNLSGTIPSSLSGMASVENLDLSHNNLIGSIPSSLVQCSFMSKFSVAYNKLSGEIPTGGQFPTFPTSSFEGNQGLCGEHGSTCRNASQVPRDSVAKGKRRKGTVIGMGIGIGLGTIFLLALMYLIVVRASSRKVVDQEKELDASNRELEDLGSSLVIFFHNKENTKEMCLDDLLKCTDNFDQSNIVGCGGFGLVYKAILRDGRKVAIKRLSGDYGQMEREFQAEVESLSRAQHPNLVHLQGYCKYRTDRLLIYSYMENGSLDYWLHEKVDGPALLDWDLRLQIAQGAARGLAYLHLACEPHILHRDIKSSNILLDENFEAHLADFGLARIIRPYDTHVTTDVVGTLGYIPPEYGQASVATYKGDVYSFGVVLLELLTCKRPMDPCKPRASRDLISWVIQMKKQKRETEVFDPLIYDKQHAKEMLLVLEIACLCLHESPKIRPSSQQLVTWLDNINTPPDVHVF

B1: PSKR1JK^Y843F (phospho-mutated) (domain or fragment)
chain: VRASSRKVVDQEKELDASNRELEDLGSSLVIFFHNKENTKEMCLDDLLKCTDNFDQSNIVGCGGFGLVYKAILRDGRKVAIKRLSGDYGQMEREFQAEVESLSRAQHPNLVHLQGYCKYRTDRLLIYSYMENGSLDYWLHEKVDGPALLDWDLRLQIAQGAARGLAFLHLACEPHILHRDIKSSNILLDENFEAHLADFGLARIIRPYDTHVTTDVVGTLGYIPPEYGQASVATYKGDVYSFGVVLLELLTCKRPMDPCKPRASRDLISWVIQMKKQKRETEVFDPLIYDKQHAKEMLLVLEIACLCLHESPKIRPSSQQLVTWLDNINTPPDVHVF
B2: PSKR1JK^T890A (phospho-mutated) (domain or fragment)
chain: B1 chain with F167Y, T214A
B3: PSKR1JK, wild type (ligand of the MST) (domain or fragment)
chain: B1 chain with F167Y
B4: BRAKJK, wild type (ligand of the MST) (domain or fragment)
chain: MPGRLVCGDSIETDKQLLLNLKSFLKEQNPVDKGFKYNHWNPTDLSPCRWPGISCTTSINRVTGIDLSESNLAGKLFNNFSAMTELNSLDLSKNTFSESIPSDLGWCRNLKFLNLSHNIIVGDLNLTGLNKLEVLDLTMNRIHGLTIPEICDNLAVANISNNNFTSESGFEFSHCKKLKYLDLSYNYLTGNLSFGLDMLNMFSASHNNLSGSLPSWIFTQNCSLQGLDLSENRFFGELPTSIANCKRLVELNLWGNSFSGSIPRGIGSVHSLKELCLGSNNFSSDVPDTLSGLNKLVFLDLSRNNFGGEIQEIFGQLTQVRFLVLHGNSYTGGIVSSGIPNLVNLSRLDLSDNHFSGPLPVEISEMKGLEFLILAHNQFSGNIPSEYGDLTALQAVDLSSNRINGSIPPSFGKLRSLLWLMLANNSLSGEIPSELGNCSSLLWLNLANNQLTGPIPPQLASIGADPMLTFLLNRGKEKLTASPGDCFAMRRWIPADYPPFSFIYPLLTGKSCRILGDKLFMGDGLMPLCEPGSNVRKNQVPGYIQLSDNKLSGEIPPEISNMKKMSMMHLGANEFSGRLPSEIGQLHLVVLNVSQNKFSGEIPKQIGHLKCLLNLDLSFNNFSGPFPVSFSNLHDLSKFNISYNQYIYGAVPETGQLLTFDKSSFLGNPLLRLPSFMHNSKNNTERNTNDTHKKPKKVGALLVIVVLVLAFLVCGVMSLVVCLLIKVPRGSAGILLEDTEGRHDSPSSTNASSSRGSDDVKVIRLDRTSFTHSDILKATWNFSNDRIIGRGGFGIVYRGVLPDGRDVAVKKLQREGIEGEREFRAEMEALSGNGSGWPHPNLVTLYGWCLDGSEKLLVYEYMEGGTLEDFITDRTRFTWKCRIQAAIDVARALVYLHHDCYPCIVHRDVKANNVLLDKDGRAKVTDFGLARVMISEHTHVSTMVAGTIGYVAPEYGQIMQATTKGDVYSYGVLAMELATGRHAIDGGEECLVEWATRVMGDGRKGFTRAIIPDALLVPGLVEGAEEMYELLRIGIRCTAETPHDRPNMKQVLDMLISVPSSQKGSSRSFGSSRSTSPLL
B5: BRAKJK^Y1048F (phospho-dead) (domain or fragment)
chain: T1 chain with Y303F
B6: BRAKJK^T1027A (phospho-dead; printed BRAKJK^T1024A in the results) (domain or fragment)
chain: T1 chain with T282A

Target: T1, GST-BRAKJK
Experiment: MST

Kd [nM] | Binder
1800 | B1
2270 | B2
171 | B3

Target: T2, GST-PSKR1JK
Experiment: MST

Kd [nM] | Binder
196 | B4
6900 | B5
2430 | B6
